These results are taken from patent publication US20250313631A1 (HUMMINGBIRD BIOSCIENCE PTE, published 2025).

The target of experiment [1] is T1, recombinant human VISTA (His-tagged) (human, UniProt Q9H7M9 33-194).
T1 construct: bought soluble protein (Sino Biological); also called hVISTA; human VISTA polypeptide
Description: BLI (Octet QK384): His-tagged human VISTA on anti-Penta-HIS tips, V4 1000 to 31.3 nM as analyte, global fit. (In general: Biolayer interferometry detects binding as a change in optical thickness at a sensor tip.)

Experiment [2] concerns the target T2, recombinant cynomolgus macaque VISTA (His-tagged) (cynomolgus macaque, UniProt A0A7N9IB00 33-194).
T2 construct: also called cyno VISTA; cynomolgus monkey VISTA
Nature of the experiment: BLI (Octet QK384), His-tagged VISTA on anti-Penta-HIS tips, antibody as analyte.

For experiment [3], the target named is T3, recombinant mouse VISTA (His-tagged) (mouse, UniProt Q9D659 33-191).
T3 construct: also called murine VISTA; mVISTA
T3 sequence (looked up): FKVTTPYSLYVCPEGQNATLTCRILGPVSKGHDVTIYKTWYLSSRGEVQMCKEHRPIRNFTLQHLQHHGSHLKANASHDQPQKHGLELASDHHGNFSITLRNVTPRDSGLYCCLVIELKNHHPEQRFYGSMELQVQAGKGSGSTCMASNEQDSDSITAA
Described as above.

In experiment [4] the target is T1, recombinant human VISTA (His-tagged). Nature of the experiment: BLI (Octet QK384): His-tagged human VISTA on anti-Penta-HIS tips, V4 as analyte; value of the line above the sensorgram, which differs from the table below it.
In experiment [5] the target is T3, recombinant mouse VISTA (His-tagged). Description: SPR (Biacore), VISTA-HIS captured, antibody as analyte, 1:1 model; SPR (Biacore), mouse VISTA.
The target in experiment [6] is T1, recombinant human VISTA (His-tagged). Nature of the experiment: antigen-binding ELISA; HMBD-002 10 mg/mL in F6, day 0.
Experiment [7] shares this target. Description: antigen-binding ELISA; HMBD-002 10 mg/mL in F4, day 0.
For experiment [8], the target named is T4, rat VISTA expressed on cells (rat, UniProt A0ABK0L5H3 33-310).
T4 construct: whole, on cells; also called rat VISTA on HEK293T cells; VISTA on rat CD11b+ myeloid cells
T4 sequence: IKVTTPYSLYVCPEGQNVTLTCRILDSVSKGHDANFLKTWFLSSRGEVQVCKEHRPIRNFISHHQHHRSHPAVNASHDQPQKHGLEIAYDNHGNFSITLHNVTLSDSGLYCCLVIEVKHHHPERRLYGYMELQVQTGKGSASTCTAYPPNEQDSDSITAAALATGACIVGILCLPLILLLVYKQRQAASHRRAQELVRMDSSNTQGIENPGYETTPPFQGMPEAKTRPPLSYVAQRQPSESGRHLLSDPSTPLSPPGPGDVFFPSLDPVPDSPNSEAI
Nature of the experiment: flow cytometry, HEK293T cells expressing the VISTA ortholog. In general terms: A flow cytometer gives signals particle by particle.

Experiment [9] concerns the target T5, mouse VISTA expressed on cells (mouse, UniProt Q9D659 33-308).
T5 construct: whole, on cells; also called murine VISTA on transfected cells; VISTA on mouse CD11b+ myeloid cells
T5 sequence (looked up): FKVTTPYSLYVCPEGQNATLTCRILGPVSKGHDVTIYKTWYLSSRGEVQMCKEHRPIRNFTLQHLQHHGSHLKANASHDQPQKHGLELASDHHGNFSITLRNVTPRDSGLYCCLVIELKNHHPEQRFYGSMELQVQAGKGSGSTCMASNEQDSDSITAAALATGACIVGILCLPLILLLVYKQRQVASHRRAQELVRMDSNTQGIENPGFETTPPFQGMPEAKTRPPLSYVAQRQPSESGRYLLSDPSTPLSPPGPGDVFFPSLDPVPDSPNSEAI
Described as above.

Experiment [10] deals with T6, human VISTA expressed on cells (human, UniProt Q9H7M9 33-311).
T6 construct: also called HEK293 VISTA O/E; HEK293T or HEK293-6E cells overexpressing human VISTA
Described as above.

For experiment [11], the target named is T1, recombinant human VISTA (His-tagged). Description: ELISA on coated human VISTA, antibody diluted in buffer of pH 6.5. A general note: ELISA stands for enzyme-linked immunosorbent assay.
Experiment [12] has the same target. Description: antigen-binding ELISA; HMBD-002 in F8, day 20 at 40°C.
For experiment [13] the target is unchanged. Description: antigen-binding ELISA; HMBD-002 in F10, day 30 at 40°C.
Experiment [14] deals with T3, recombinant mouse VISTA (His-tagged). Nature of the experiment: ELISA, VISTA-HIS protein coated; ELISA, mouse VISTA-HIS.
The target of experiment [15] is T1, recombinant human VISTA (His-tagged). Description: antigen-binding ELISA; HMBD-002 in F3, day 20 at 40°C.
For experiment [16] the target is unchanged. Description: antigen-binding ELISA; HMBD-002 in F2, day 10 at 40°C.
The target in another experiment is T7, human B7H6 (human, UniProt Q68D85 25-262).
T7 construct: also called NCR3LG1
T7 sequence (looked up): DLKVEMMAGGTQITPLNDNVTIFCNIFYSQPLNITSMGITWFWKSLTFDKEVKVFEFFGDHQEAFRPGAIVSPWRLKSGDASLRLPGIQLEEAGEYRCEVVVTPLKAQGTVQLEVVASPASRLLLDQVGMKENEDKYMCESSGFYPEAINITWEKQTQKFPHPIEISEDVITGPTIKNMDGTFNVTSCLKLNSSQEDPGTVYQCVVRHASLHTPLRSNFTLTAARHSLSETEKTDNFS
Nature of the experiment: ELISA, plate coated with human B7H6, antibody titrated.

A value given as a limit tells only on which side of the number the result lay.

B1: anti-VISTA clone 4M2-C12 IgG1 (antibody)
heavy: not shown
light: DIVITQTPAILSTSPGEKVTMTCRASSSVGYIHWYQQKPGSSPKPWIYATSNLASGVPARFSGSGSGTSNSLTITRVEAEDAATYYCQQWSSYPPITFGGGTKLEVKRTVAAPSVFIFPPSDEQLKSGTASVVCLLNNFYPREAKVQWKVDNALQSGNSQESVTEQDSKDSTYSLSSTLTLSKADYEKHKVYACEVTHQGLSSPVTKSFNRGEC
notes: mouse variable regions on human IgG1/kappa constant regions; also called V4; V4pr
As usually defined, the kon is the second-order rate constant of association. What is called Kd is the equilibrium constant for the complex coming apart. Broadly, the koff is a measure of how fast the partners let go of each other. On to B1, for which the kon in experiment [1] was determined as 45400 M⁻¹ s⁻¹. For the same molecule, the equilibrium dissociation constant (Kd) is < 0.001 nM in experiment [2] and 113 nM in experiment [3]. The koff in [4] was < 4.54e-07 s⁻¹.

B2: V4-C26 hIgG4 (antibody)
heavy: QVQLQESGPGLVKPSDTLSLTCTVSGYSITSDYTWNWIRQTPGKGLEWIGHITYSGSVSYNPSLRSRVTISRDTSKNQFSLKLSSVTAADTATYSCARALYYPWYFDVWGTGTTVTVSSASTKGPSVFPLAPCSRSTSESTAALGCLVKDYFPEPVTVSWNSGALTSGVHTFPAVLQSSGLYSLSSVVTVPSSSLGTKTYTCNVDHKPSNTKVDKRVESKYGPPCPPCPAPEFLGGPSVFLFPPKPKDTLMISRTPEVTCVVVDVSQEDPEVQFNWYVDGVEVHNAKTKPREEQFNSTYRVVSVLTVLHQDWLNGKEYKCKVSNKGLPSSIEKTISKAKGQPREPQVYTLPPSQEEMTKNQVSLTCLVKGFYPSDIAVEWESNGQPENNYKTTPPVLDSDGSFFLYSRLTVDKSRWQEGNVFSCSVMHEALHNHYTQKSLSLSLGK
light: EIVLTQSPATLSLSPGERATLSCRASSSVGYIHWYQQKPGQAPRPIIYTTSNRATGIPARFSGSGSGTDNTLTISSLEPEDSAVYYCQQWSSYPPITFGGGTKLEVKRTVAAPSVFIFPPSDEQLKSGTASVVCLLNNFYPREAKVQWKVDNALQSGNSQESVTEQDSKDSTYSLSSTLTLSKADYEKHKVYACEVTHQGLSSPVTKSFNRGEC
notes: human IgG4 (S228P)/kappa format; also called HMBD-002; HMBD-002-V4C26
As usually defined, the EC50 is the concentration that produces a half-maximal response. Turning to B2, in [5], the dissociation constant Kd was determined as 0.549 nM. Further, the EC50 in experiment [6] was 0.0294 nM; in [7], 0.0357 nM; in experiment [8], 4.13 nM; in experiment [9], 8.94 nM; in [10] it was 3.74 nM; in experiment [11], 0.0363 nM. For the same molecule, the EC50 in [12] was determined as 0.0248 nM; in experiment [13], 0.027 nM; in experiment [14], 0.00355 nM; in experiment [15], 0.0189 nM; in experiment [16], 0.0322 nM. Also, in the experiment with human B7H6, the binding result is given as “no binding (tested: about 3e-8 M)”.
